{
  "source": "patent US20240216555A1",
  "about": "“TARGETING AND TREATMENT OF CANCEROUS CELLS USING RADIOLABELED GRP78-BINDING AGENTS” (University of Kentucky Research Foundation, priority 2022, published 2024)",
  "origin": "cited, not measured here",
  "key": {"csGRP78 [1]": {"molecular_target": "T1, csGRP78 (Homo sapiens, UniProt P11021)", "T1 sequence (P11021 19-654)": "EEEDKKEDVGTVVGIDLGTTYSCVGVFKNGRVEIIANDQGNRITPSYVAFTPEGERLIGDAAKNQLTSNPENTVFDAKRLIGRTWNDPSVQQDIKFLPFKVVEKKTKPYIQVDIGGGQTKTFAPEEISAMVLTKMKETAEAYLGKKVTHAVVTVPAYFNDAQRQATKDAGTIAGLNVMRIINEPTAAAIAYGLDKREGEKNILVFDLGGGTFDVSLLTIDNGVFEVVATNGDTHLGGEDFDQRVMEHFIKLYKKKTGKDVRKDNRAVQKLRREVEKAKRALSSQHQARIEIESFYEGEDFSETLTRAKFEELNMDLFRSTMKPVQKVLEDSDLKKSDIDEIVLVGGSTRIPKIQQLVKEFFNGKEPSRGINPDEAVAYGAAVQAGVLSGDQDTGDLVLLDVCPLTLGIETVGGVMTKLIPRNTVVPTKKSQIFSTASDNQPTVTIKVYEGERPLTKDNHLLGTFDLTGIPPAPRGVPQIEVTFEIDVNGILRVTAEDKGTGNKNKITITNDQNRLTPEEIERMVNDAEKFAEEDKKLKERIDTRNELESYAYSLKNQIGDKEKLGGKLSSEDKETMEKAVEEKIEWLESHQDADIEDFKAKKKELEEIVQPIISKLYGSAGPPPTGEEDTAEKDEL", "conditions": "previously shown; cited from earlier work"}, "csGRP78 [2]": {"molecular_target": "T1, csGRP78", "conditions": "previously shown; cited from earlier work", "remark": "listed apart in the source"}},
  "note": "Where no end group is shown, it is not given here.",
  "data": [
    {"sequence": "CTVALPGGYVRVC (also: cyclic (type not given here))", "values": [
      {"measurement": "binding to csGRP78", "setting": "csGRP78 [1]", "value": "bind to csGRP78"},
      {"measurement": "translocation to the ER", "setting": "csGRP78 [2]", "value": "translocate to the ER"}
    ]}
  ]
}
